# Assay results from the supplement of paper PMC12042874.
# ± gives the uncertainty stated by the source.
# Experiment: amyloid nucleation score (Sup35N fusion, yeast selection) (log enrichment); library NNK2; higher = more nucleation; inactive = no reads after selection
# Summary of the method: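 DiMSum was used to calculate nucleation scores as log enrichment of output over input reads, centred on the mode score of non-aggregating sequences. Sequences with fewer than 100 input reads were not scored. Input and output came from Illumina sequencing of plasmid inserts in psi-negative yeast expressing peptides of 20 random codons fused to Sup35N, induced 24 hours with 100 μM copper sulfate and then grown 7 days at 30°C on medium lacking adenine and uracil.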
row,Substance,amyloid nucleation score
1,SSDATCGVDGHFRLLITHCG,5.9 ± 0.075
2,SSFIQGCQDSDTNFGGTSSC,inactive
3,SSGGMVKHYPKIQLSSVWVF,0.238 ± 0.64
4,SSIGMVDIVKTLMGK,-0.089 ± 0.61
5,SSIGYVDYAEFEAGFFIYIV,-0.823 ± 0.44
6,SSLRKRRLVVRNVAKSRMFL,2.14 ± 0.31
7,SSLWTCGFIELRPRVLSMGS,0.327 ± 0.57
8,SSQSHGGRFQIEYFW,-0.059 ± 0.33
9,SSRSDAIFIAICLNFIKGKM,1.32 ± 0.33
10,SSRYSVIVVYMMGAPSLVGQ,inactive
11,SSSNLG,inactive
12,SSSRGRVCP,0.012 ± 0.63
13,SSTAVSQILH,inactive
14,SSVSRLR,-0.277 ± 0.74
15,SSWKCIIYNPQCEVPTGEQE,-0.289 ± 0.49
16,SSYLPLQSTAIGHHSSRYGL,1.08 ± 0.34
17,STATHSWGCFSWNSCFHGRQ,9.493 ± 0.05
18,STCFVCFFTYVNSYIVLFT,5.63 ± 0.082
19,STELFLS,-0.251 ± 0.28
20,STEQLLQVHNTHGRPWSRLS,1.32 ± 0.32
21,STFDPCLRHPLIMCFYSVCA,0.014 ± 0.46
22,STGILRS,inactive

row,Substance,amyloid nucleation score
1,STGRNMKPSLNASFLRLRMF,-0.228 ± 1.1
2,STICFG,-0.541 ± 1
3,STLVIVCFYICRHFSTYRVR,-0.832 ± 0.32
4,STLWVAKGH,-0.064 ± 1.1
5,STNCFRAFTHYPMYIGCVVM,-0.159 ± 0.8
6,STNVMLLSFSHMYHSYVLLG,-0.261 ± 0.63
7,STPLILVRCNSYL,-0.456 ± 0.28
8,STRSGGLKQSVPLSRPP,-0.325 ± 0.42
9,STSECLK,inactive
10,STSKDLMYDCL,inactive
11,STTGYSVWFVA,-1.19 ± 0.62
12,STTYFDVCMVGFWYNFSTWG,-0.994 ± 1.1
13,STVEVRGYLDAVMVGVVSNS,3.8 ± 0.052
14,STVGEVYVGLALMDVWGMEW,0.559 ± 0.32
15,STYNCFTGADRSLL,0.94 ± 0.67
16,SVAVPWGFTSYSCVRLGGFN,3.06 ± 0.14
17,SVCMRIKFWSPAPDAEHEKA,6.614 ± 0.056
18,SVDNGYVFSLVDPREYRFHL,-0.813 ± 0.76
19,SVDVKPVTQMTGTMVESTGS,1.17 ± 0.28
20,SVFFGFWDTHAAAYMHGVFM,inactive
21,SVHRERWMFYIFVCTLVVRG,0.056 ± 0.43
22,SVICELLQDRFTSLHGMYGY,0.119 ± 0.31

row,Substance,amyloid nucleation score
1,SVIDDHKKVKSGITRSYREK,0.504 ± 0.15
2,SVLERPCMS,0.176 ± 0.76
3,SVLNGAAGMYWCW,0.107 ± 0.46
4,SVLRSNRIVDLSIL,inactive
5,SVMPMRYLVCVILLGRRSRT,0.765 ± 0.16
6,SVRKRKSNNAIPANAPNKI,0.513 ± 0.35
7,SVSCIKFIHSLAEYGMSKEN,0.697 ± 0.16
8,SVSSKGNLGA,0.11 ± 0.22
9,SVTPWTMNNSQYILMAYRVK,0.283 ± 0.34
10,SVVAVFLKYCVVADSATGV,0.001 ± 0.76
11,SVVFKNSVWYSITNHNIMSL,1.57 ± 0.29
12,SVVWCWCSEW,0.602 ± 0.81
13,SVVWFNTMYLYDWLHKPICI,inactive
14,SVWTFLTCI,0.906 ± 0.46
15,SVWVCPPLFGQMCAGVTNNR,-0.014 ± 0.41
16,SVYGKFLYF,2.23 ± 0.11
17,SVYVVGFLCQGYSSLRSLVA,4.42 ± 0.089
18,SWCACSLGSQYGTMSGWLLY,0.162 ± 0.37
19,SWCCGCFLLCVPRTVSSFVR,0.167 ± 0.39
20,SWGNLWKSYCAK,-0.55 ± 0.49
21,SWIIGVWIR,-0.287 ± 0.45
22,SWLSQKSLESALRAIMNGKY,2.13 ± 0.16

row,Substance,amyloid nucleation score
1,SWLVDPTLGTRLSFTVMYRC,0.053 ± 1.1
2,SWNIFPQSNLKSKWDTIRCL,-2.46 ± 0.62
3,SWRNSKISMPNSAFTSQDTV,0.052 ± 0.31
4,SWSAIEPQVPKYYYSL,-0.623 ± 0.79
5,SWTLFKTLMWIRHILFVECR,-0.973 ± 0.55
6,SYCKPTVIACVMLSCQQ,8.866 ± 0.067
7,SYCSLVFLTDISSYIGFQCV,5.16 ± 0.078
8,SYFNVNWARFQVGYSLIVCL,6.131 ± 0.04
9,SYGDRLALQR,0.546 ± 0.8
10,SYLCDPLRETTYSPKYLRST,0.667 ± 0.38
11,SYLFVSVDLHFIEVFYR,1.44 ± 0.12
12,SYLKYVDWQTFKVTWCAGGN,-0.38 ± 0.54
13,SYLSCGQKKHWCWPKVDSFR,-0.444 ± 0.42
14,SYNYLYILRCYYLDVHSFRT,-0.788 ± 0.76
15,SYPAKDRNLYDCYLCPVSYL,-1.16 ± 0.61
16,SYPDELNLEFGCYHQSWTYF,3.67 ± 0.058
17,SYRNTIWVSINALGVSWEAS,2.52 ± 0.078
18,SYSLRFWYIPVADFWLL,-0.938 ± 0.36
19,SYTNLGPAGCVALSKYSVIR,-1.18 ± 1.1
20,SYVCRIERADVACWVKEEGA,0.857 ± 0.28
